The record followed here is the RNAGym collection of RNA variant scans (doi:10.7554/elife.90254).

B1: LINE1-full (parent)
chain: UACGUAGGUGGUUUUCCCCUGAUAGUGCUAAGGGGGCCUGGAAGUUUGGACUGGGCAGAGCUCAACACAGCGUGGCAAAGUGGCUGUGGCUAGACUGCCUCUCUGGAUUCCUCGUCACUCAGCAGGGCAUCUCUGAGAGAAAUGCC

The data set covers variants of B1. As to the kind of experiment: self-cleavage, relative activity (ratio to wild type); higher = more cleavage; in vitro, sequencing; the parent is a self-cleaving ribozyme.
With U13A C28U, the self-cleavage was 0.76.
The value for U13C A138G was 1.6.
With U14A A69G, the self-cleavage was determined as 2.24.
As for U14A A69U, the figure is 0.06; as for U12G C113A, 1.84; as for U13C C17A, 1.4.
As for U13C A129G, the figure is 1.52; as for U13C A129U, 1.13; as for U12G U39A, 1.05.
The value for U13C A65C was 0.15.
As to U13C A65U, the self-cleavage was determined as 0.2.
The value for U12G A69G was 0.77; that for U12G U104A was 1.76.
As for U14A A67G, the figure is 0.59; as for U13A U130A, 1.15; as for U13C C28U, 0.64.
As for U13C U14C, the self-cleavage was determined as 1.13.
As for U13C U14A, the figure is 0.79; as for U13A A124G, 0.97; as for U13A A124U, 0.98.
Regarding U13C G33A, the self-cleavage was 0.81.
Turning to U13C G82A, the self-cleavage turned out to be 0.72.
As for U12G A22G, the figure is 1.04; as for U13A C110A, 0.84; as for U12G A79U, 1.3.
As for U13C G48U, the figure is 0.91; as for U12G A121G, 1.4; as for U12G A121C, 1.29.
Consider U12C U91A, for which the self-cleavage amounted to 0.64.
The value for U12G U108C was 1.52; that for U12G U108A was 0.77; that for U13A G34A was 1.13.
In the case of U13C U100G, the self-cleavage turned out to be 1.63.
As for U13C U39G, the figure is 1.54; as for U13C U39A, 1.33; as for U13G G34U, 1.2.
As for U13A U46C, the self-cleavage came to 0.77.
As to U13G C99U, the self-cleavage was determined as 0.69.
As for U12G C103A, the figure is 1.15; as for U13G U119A, 1.8; as for U13C U109C, 1.
The value for U13C U109A was 1.11; that for U12G U85G was 0.21; that for U12G U85A was 0.22.
As for U12G U20A, the figure is 1.08.
Regarding U13C G70C, the self-cleavage is 0.15.
In the case of U13A G35A, the self-cleavage amounted to 0.65.
The value for U13G U143A was 1.33; that for U14A A59G was 0.14.
As for U13C C118U, the self-cleavage is 0.99.
In the case of U12G A67G, the self-cleavage came out at 0.53.
As for U12G A67U, the figure is 0.23; as for U14A A136U, 1.19.
As for U12G G21A, the figure is 1.19; as for U12G U45A, 1.3.
The value for U13C G58C was 0.08; that for U12G C90U was 0.08; that for U13A C103A was 1.04.
Take U14A A94U: the self-cleavage was 0.13.
On to U14A C99G, for which the self-cleavage was determined as 0.63.
As for U13A C51A, the figure is 0.75; as for U13A U109A, 0.28; as for U13G A30U, 0.56.
The value for U13G A30G was 1.27.
The value for U13G U15C was 1.47; that for U13C C146U was 1.64.
With U14A C51U, the self-cleavage was found to be 0.97.
With U13C U20A, the self-cleavage was determined as 1.07.
The value for U12G G89A was 0.14; that for U13A G21U was 0.47.
Turning to U12G G105U, the self-cleavage was 0.67.
Regarding U13A A22G, the self-cleavage came to 1.05.
The value for U13C G32U was 1.2; that for U13C G32C was 0.7.
U13C G32A: the self-cleavage came out at 0.99.
Consider U12G A42G, for which the self-cleavage worked out at 1.42.
The value for U14A A79G was 0.8; that for U13C A69G was 0.5.
The value for U13C G83U was 0.27; that for U12C U134G was 1.97; that for U12C U134C was 1.3.
As to U13G A117C, the self-cleavage amounted to 0.65.
Take U13C G27A: the self-cleavage stood at 0.85.
The value for U13A U143C was 1.51; that for U13C U15G was 0.75.
As for U13C U15A, the figure is 0.79.
The value for U13A C38A was 0.96; that for U12G U143A was 0.59.
In the case of U13C A92U, the self-cleavage is 0.68.
The value for U13C A92G was 0.
Regarding U13A C71A, the self-cleavage turned out to be 0.12.
For U13C C51G, the self-cleavage came to 1.44.
As for U14A A42C, the figure is 0.97; as for U14A A42G, 0.98.
As for U14A A42U, the figure is 0.47.
In the case of U13A A43G, the self-cleavage came to 0.96.
As for U12G A124G, the figure is 0.84; as for U13G A69G, 0.67.
In the case of U14A A50U, the self-cleavage turned out to be 0.18.
As for U13C C37G, the figure is 1.03.
In the case of U13C C37U, the self-cleavage is 1.33.
The value for U12G A138G was 1.29.
With U13C A24G, the self-cleavage was determined as 1.16.
Turning to U13C U52C, the self-cleavage was determined as 1.06.
Turning to U13C U52A, the self-cleavage came to 1.44.
Consider U13C C19U, for which the self-cleavage worked out at 1.01.
As for U13G U134A, the figure is 1.06.
The value for U13C U143C was 1.06; that for U13C U143G was 2.3.
The value for U13C U108C was 1.37.
Consider U13C U108A, for which the self-cleavage was determined as 0.91.
Regarding U13C G55A, the self-cleavage is 0.23.
Consider U13C G55U, for which the self-cleavage came to 0.22.
As for U13C C61U, the figure is 0; as for U13A A140U, 0.89; as for U13G A142G, 1.41.
The value for U13G U100C was 1.17; that for U12G A129U was 1.49.
As for U13G A107G, the figure is 1.12; as for U13G A107U, 1.58.
U13A U39C: the self-cleavage came to 0.61.
On to U13A A78G, for which the self-cleavage worked out at 0.84.
The value for U13C U81A was 1.56; that for U12G A30G was 1.2.
As for U12G A30U, the figure is 0.83.
With U13C C120G, the self-cleavage worked out at 1.48.
As for U13A C133U, the figure is 0.67; as for U13A C133A, 0.97; as for U13C G114U, 1.65.
The value for U13C G114A was 1.16; that for U13G U96C was 0.14.
As for U12G U130C, the figure is 1.43; as for U12G U130G, 0.77.
Take U13C U85G: the self-cleavage turned out to be 0.29.
As for U13C U85C, the figure is 0.18; as for U13C U23A, 1.09.
The value for U13G U73A was 2.54; that for U14A A121C was 1.07; that for U14A A121G was 0.94.
Regarding U12G U87C, the self-cleavage worked out at 0.16.
Take U12G U87A: the self-cleavage was determined as 0.09.
As for U13C U112A, the figure is 1.05.
The value for U13C A42G was 1.19.
With U13C A42U, the self-cleavage is 0.88.
For U12C U132C, the self-cleavage came out at 1.13.
The value for U12C U132A was 1.31.
As for U13C U47G, the figure is 0.81; as for U13C U47A, 1.02.
As for U13C G86A, the figure is 0.13; as for U12G G139A, 0.95; as for U14A A64G, 0.21.
With U14A A64U, the self-cleavage was found to be 0.48.
As for U12G A77C, the figure is 0.69; as for U12G A77U, 0.78.
As for U12G A64U, the figure is 0.83; as for U12G U23C, 1.32; as for U13C A79G, 1.25.
U13C A79U: the self-cleavage was 1.53.
The value for U12G U134C was 1.19; that for U13A U119A was 1.06; that for U13C G25A was 1.31.
Take U13C G127U: the self-cleavage was found to be 1.36.
The value for U13C G127C was 1.47; that for U13C G34U was 1.99; that for U13C A67U was 0.16.
As for U13G A57U, the figure is 0.13; as for U13G A57G, 1.05.
